Molecular target: biotin-YY1 spacer peptide (human) (UniProt P25490)
Assay: SPR

Chain of biotin-YY1 spacer peptide (human) (P25490 199-228): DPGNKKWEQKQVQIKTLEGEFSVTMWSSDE
Chain of SFMBT2 4MBT domain, human (domain or fragment) (Q5VUG0 whole entry, the tested form may be a part): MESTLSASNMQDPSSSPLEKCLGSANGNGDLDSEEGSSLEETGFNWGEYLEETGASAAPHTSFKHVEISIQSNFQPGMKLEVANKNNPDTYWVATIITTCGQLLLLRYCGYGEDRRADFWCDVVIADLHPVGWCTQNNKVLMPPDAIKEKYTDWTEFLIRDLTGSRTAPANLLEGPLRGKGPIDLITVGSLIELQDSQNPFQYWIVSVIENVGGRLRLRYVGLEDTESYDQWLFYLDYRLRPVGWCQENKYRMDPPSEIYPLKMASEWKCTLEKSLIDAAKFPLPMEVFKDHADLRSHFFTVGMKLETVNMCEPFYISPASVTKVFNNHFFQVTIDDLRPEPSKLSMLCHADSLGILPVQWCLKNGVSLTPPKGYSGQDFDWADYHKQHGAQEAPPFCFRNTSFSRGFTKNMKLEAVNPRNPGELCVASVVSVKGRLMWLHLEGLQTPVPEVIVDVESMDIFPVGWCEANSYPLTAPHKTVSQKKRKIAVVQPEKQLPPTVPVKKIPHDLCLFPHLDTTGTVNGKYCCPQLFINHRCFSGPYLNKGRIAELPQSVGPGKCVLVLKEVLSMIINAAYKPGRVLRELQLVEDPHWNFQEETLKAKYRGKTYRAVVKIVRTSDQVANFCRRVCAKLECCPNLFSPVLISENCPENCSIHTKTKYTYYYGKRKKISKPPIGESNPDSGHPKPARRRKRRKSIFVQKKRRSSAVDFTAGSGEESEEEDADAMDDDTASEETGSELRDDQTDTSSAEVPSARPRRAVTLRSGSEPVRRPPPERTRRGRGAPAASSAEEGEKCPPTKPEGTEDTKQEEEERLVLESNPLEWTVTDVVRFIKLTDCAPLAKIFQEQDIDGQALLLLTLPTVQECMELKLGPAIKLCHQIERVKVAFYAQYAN

fold lower affinity than L3MBTL2 and MBTD1: 2 fold
fold weaker affinity than the Drosophila complex: 50 fold
Substance: SFMBT2 4MBT domain, human (domain or fragment)
